3 variants from IntAct's records for PubMed 18626018 can be followed below.

The chains are these.
B1: CREB-regulated transcription coactivator 2 (Mus musculus), Q3U182 (parent)
chain: MATSGANGPGSATASASNPRKFSEKIALQKQRQAEETAAFEEVMMDIGSTRLQAQKLRLAYTRSSHYGGSLPNVNQIGCGLAEFQSPLHSPLDSSRSTRHHGLVERVQRDARRMVSPLRRYPRHIDSSPYSPAYLSPPPESGWRRMMPWGNLPAEKGQLFRLPSALNRTSSDSALHTSVMNPNPQDTYPGPTPPSVLPSRRGGGFLDGEMDAKVPAIEENVVDDKHLLKPWDAKKLSSSSSRPRSCEVPGINIFPSPDQPANVPVLPPAMNTGGSLPDLTNLHFPPPLPTPLDPEETVYPSLSGGNSTTNLTHTMTHLGISGGLGLGPSYDVPGLHSPLSHPSLQSSLSNPNLQASLSSPQPQLQGSHSHPSLPASSLAHHALPTTSLGHPSLSAPALSSSSSSSSTSSPVLSAPPYPASTPGASPRHRRVPLSPLSLPAGPADARRSQQQLPKQFSPTMSPTLSSITQGVPLDTSKLPTDQRLPPYPYSPPSLVIPTHPPTPKSLQQLPSQACLVQPSGGQPPGRQPHYGALYPPGSSGHGQQPYHRPINDFSLGNLEQFNMESPSTSLVLDPPAFSEGPGFLGSEGSMSGPQDPHVLNHQNLTHCSRHGSGPNIILTGDSSPGFSKEIAAALAGVPGFEVSASGLELGLGLEDELRMEPLGLEGLTMLSDPCALLPDPAVEDSFRSDRLQ

In assay [1] the parent is B1. The settings on record: with 1433b_human YWHAB.
Assay [2] covers variants of B1. Conditions: with mark2_human MARK2, Q7KZI7.
mark2_human MARK2, Q7KZI7, sequence (Q7KZI7 whole entry): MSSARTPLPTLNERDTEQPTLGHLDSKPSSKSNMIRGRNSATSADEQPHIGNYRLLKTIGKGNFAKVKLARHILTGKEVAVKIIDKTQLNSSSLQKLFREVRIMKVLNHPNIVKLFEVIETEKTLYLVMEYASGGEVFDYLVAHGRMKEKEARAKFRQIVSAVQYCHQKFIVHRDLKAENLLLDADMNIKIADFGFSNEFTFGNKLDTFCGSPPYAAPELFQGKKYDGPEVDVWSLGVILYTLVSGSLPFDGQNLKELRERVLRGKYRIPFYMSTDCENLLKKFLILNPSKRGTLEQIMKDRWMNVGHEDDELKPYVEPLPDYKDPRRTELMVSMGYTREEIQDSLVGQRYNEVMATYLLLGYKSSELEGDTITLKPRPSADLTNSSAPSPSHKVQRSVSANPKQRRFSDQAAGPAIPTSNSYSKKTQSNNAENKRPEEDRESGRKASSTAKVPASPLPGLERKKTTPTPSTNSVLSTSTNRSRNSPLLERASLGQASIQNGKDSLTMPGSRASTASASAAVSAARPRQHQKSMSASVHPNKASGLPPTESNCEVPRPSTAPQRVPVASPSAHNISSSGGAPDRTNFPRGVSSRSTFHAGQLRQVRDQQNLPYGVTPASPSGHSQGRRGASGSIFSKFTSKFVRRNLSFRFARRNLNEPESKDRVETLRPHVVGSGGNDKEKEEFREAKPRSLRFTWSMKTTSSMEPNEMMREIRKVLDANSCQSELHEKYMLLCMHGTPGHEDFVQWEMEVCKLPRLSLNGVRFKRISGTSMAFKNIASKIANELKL
The variants in assay [3] derive from B1. The settings on record: with aapk1_human PRKAA1, Q13131.
aapk1_human PRKAA1, Q13131, sequence (Q13131 whole entry, looked up): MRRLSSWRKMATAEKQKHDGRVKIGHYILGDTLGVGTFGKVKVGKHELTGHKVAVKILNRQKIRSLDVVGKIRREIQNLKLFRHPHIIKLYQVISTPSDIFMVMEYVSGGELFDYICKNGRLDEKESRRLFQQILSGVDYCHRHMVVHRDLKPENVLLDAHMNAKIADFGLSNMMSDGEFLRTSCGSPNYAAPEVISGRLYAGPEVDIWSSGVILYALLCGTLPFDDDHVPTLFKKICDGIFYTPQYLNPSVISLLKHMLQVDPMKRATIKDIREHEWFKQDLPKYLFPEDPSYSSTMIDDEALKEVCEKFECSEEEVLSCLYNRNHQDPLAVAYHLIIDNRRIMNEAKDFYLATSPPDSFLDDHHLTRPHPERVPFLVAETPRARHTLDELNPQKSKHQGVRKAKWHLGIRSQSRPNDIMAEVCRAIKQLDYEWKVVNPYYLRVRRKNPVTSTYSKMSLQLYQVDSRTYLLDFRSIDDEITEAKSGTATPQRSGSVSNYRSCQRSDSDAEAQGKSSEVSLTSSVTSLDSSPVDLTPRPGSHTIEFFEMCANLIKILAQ
Assay [4] covers variants of B1. Conditions: with mark3_human MARK3, P27448.
mark3_human MARK3, P27448, sequence (P27448 whole entry, looked up): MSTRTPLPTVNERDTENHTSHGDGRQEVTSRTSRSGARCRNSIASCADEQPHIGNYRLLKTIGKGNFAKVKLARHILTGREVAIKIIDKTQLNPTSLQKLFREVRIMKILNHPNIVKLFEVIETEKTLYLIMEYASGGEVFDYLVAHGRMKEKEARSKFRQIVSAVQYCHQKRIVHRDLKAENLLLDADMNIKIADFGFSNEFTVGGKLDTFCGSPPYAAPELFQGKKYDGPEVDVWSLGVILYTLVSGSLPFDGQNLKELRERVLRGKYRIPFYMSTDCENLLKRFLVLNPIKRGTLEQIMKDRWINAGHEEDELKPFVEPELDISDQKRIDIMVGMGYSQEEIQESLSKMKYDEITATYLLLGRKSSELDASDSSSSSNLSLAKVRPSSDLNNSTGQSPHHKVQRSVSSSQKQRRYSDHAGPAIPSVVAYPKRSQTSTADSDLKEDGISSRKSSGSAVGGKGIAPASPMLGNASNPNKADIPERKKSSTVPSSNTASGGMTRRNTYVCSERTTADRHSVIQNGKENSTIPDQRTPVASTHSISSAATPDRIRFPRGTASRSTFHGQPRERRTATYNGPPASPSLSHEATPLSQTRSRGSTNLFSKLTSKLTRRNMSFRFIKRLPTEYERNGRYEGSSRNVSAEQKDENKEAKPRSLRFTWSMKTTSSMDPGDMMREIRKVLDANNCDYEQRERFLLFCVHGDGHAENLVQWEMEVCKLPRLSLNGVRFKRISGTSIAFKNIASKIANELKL

As for S171A;S275A, the “effect of a mutation on the interaction” value in assay [1] is reported as “disrupting interaction”.
For the variant S275A, the “effect of a mutation on the interaction” value in assay [2], in assay [3] and in assay [4] was “disrupting interaction” in each case.
As to S171A, the “effect of a mutation on the interaction” value in assay [1], in assay [2], in assay [3] and in assay [4] was “disrupting interaction” throughout.
